Measured values from the supplement of paper PMC10567573.

B1: SCNN1D (parent)
chain: FYRLYQDLETHRLPCTSRCPRPCR

Variants of: B1
Test: protein stability index of a GFP-peptide fusion (GPS, HEK-293T) (PSI 1-6); higher = more stable
Details: c terminus: a fixed tail appended
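Also: lentivirally expressed fusions sorted by FACS into six bins by GFP to DsRed ratio, PSI derived from sequencing read proportions per bin multiplied by bin number.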

| Variant | protein stability index |
| --- | --- |
| FYRCYQDLETHRLPCTSRCPRPCR [L4C] | 1.56 |
| FYRTYQDLETHRLPCTSRCPRPCR [L4T] | 2.79 |
| FYRYYQDLETHRLPCTSRCPRPCR [L4Y] | 2.14 |
| FYRAYQDLETHRLPCTSRCPRPCR [L4A] | 3.02 |
| FYRNYQDLETHRLPCTSRCPRPCR [L4N] | 3.29 |
| FYRRYQDLETHRLPCTSRCPRPCR [L4R] | 2.49 |
| FYRIYQDLETHRLPCTSRCPRPCR [L4I] | 2.41 |
| FYRGYQDLETHRLPCTSRCPRPCR [L4G] | 3.51 |
| FYRWYQDLETHRLPCTSRCPRPCR [L4W] | 2.59 |
| FYRDYQDLETHRLPCTSRCPRPCR [L4D] | 2.69 |
| FYRSYQDLETHRLPCTSRCPRPCR [L4S] | 3.46 |
| FYRFYQDLETHRLPCTSRCPRPCR [L4F] | 2.04 |
| FYRKYQDLETHRLPCTSRCPRPCR [L4K] | 3.68 |
| FYREYQDLETHRLPCTSRCPRPCR [L4E] | 4.13 |
| FYRPYQDLETHRLPCTSRCPRPCR [L4P] | 3.47 |
| FYRHYQDLETHRLPCTSRCPRPCR [L4H] | 3.23 |
| FYRMYQDLETHRLPCTSRCPRPCR [L4M] | 2.34 |
| FYRQYQDLETHRLPCTSRCPRPCR [L4Q] | 3.24 |
| FYRLVQDLETHRLPCTSRCPRPCR [Y5V] | 1.88 |
| FYRLWQDLETHRLPCTSRCPRPCR [Y5W] | 2.08 |
| FYRLFQDLETHRLPCTSRCPRPCR [Y5F] | 1.98 |
| FYRLGQDLETHRLPCTSRCPRPCR [Y5G] | 3.16 |
| FYRLNQDLETHRLPCTSRCPRPCR [Y5N] | 3.29 |
| FYRLIQDLETHRLPCTSRCPRPCR [Y5I] | 1.76 |

| Variant | protein stability index |
| --- | --- |
| FYRLPQDLETHRLPCTSRCPRPCR [Y5P] | 3.49 |
| FYRLEQDLETHRLPCTSRCPRPCR [Y5E] | 3.17 |
| FYRLSQDLETHRLPCTSRCPRPCR [Y5S] | 2.57 |
| FYRLCQDLETHRLPCTSRCPRPCR [Y5C] | 2.13 |
| FYRLRQDLETHRLPCTSRCPRPCR [Y5R] | 2.02 |
| FYRLHQDLETHRLPCTSRCPRPCR [Y5H] | 2.92 |
| FYRLKQDLETHRLPCTSRCPRPCR [Y5K] | 2.6 |
| FYRLQQDLETHRLPCTSRCPRPCR [Y5Q] | 2.81 |
| FYRLLQDLETHRLPCTSRCPRPCR [Y5L] | 3.17 |
| FYRLDQDLETHRLPCTSRCPRPCR [Y5D] | 3.64 |
| FYRLTQDLETHRLPCTSRCPRPCR [Y5T] | 2.8 |
| FYRLAQDLETHRLPCTSRCPRPCR [Y5A] | 4.45 |
| FYRLMQDLETHRLPCTSRCPRPCR [Y5M] | 2.29 |
| FYSLYQDLETHRLPCTSRCPRPCR [R3S] | 2.42 |
| FYILYQDLETHRLPCTSRCPRPCR [R3I] | 1.95 |
| FYELYQDLETHRLPCTSRCPRPCR [R3E] | 2.63 |
| FYMLYQDLETHRLPCTSRCPRPCR [R3M] | 2.09 |
| FYLLYQDLETHRLPCTSRCPRPCR [R3L] | 2 |
| FYKLYQDLETHRLPCTSRCPRPCR [R3K] | 2.58 |
| FYTLYQDLETHRLPCTSRCPRPCR [R3T] | 2.65 |
| FYQLYQDLETHRLPCTSRCPRPCR [R3Q] | 2.71 |
| FYYLYQDLETHRLPCTSRCPRPCR [R3Y] | 1.66 |
| FYVLYQDLETHRLPCTSRCPRPCR [R3V] | 2.04 |
| FYALYQDLETHRLPCTSRCPRPCR [R3A] | 2.32 |

| Variant | protein stability index |
| --- | --- |
| FYHLYQDLETHRLPCTSRCPRPCR [R3H] | 2.38 |
| FYGLYQDLETHRLPCTSRCPRPCR [R3G] | 2.65 |
| FYCLYQDLETHRLPCTSRCPRPCR [R3C] | 1.98 |
| FYDLYQDLETHRLPCTSRCPRPCR [R3D] | 2.71 |
| FYNLYQDLETHRLPCTSRCPRPCR [R3N] | 2.22 |
| FYPLYQDLETHRLPCTSRCPRPCR [R3P] | 3.04 |
| FYFLYQDLETHRLPCTSRCPRPCR [R3F] | 2.32 |
| FIRLYQDLETHRLPCTSRCPRPCR [Y2I] | 2.27 |
| FLRLYQDLETHRLPCTSRCPRPCR [Y2L] | 1.55 |
| FDRLYQDLETHRLPCTSRCPRPCR [Y2D] | 3.56 |
| FFRLYQDLETHRLPCTSRCPRPCR [Y2F] | 2.22 |
| FPRLYQDLETHRLPCTSRCPRPCR [Y2P] | 2.85 |
| FWRLYQDLETHRLPCTSRCPRPCR [Y2W] | 2.75 |
| FQRLYQDLETHRLPCTSRCPRPCR [Y2Q] | 1.98 |
| FTRLYQDLETHRLPCTSRCPRPCR [Y2T] | 1.81 |
| FCRLYQDLETHRLPCTSRCPRPCR [Y2C] | 1.55 |
| FRRLYQDLETHRLPCTSRCPRPCR [Y2R] | 2.58 |
| FKRLYQDLETHRLPCTSRCPRPCR [Y2K] | 2.41 |
| FNRLYQDLETHRLPCTSRCPRPCR [Y2N] | 3.63 |
| FMRLYQDLETHRLPCTSRCPRPCR [Y2M] | 2.4 |
| FARLYQDLETHRLPCTSRCPRPCR [Y2A] | 2.69 |
| FSRLYQDLETHRLPCTSRCPRPCR [Y2S] | 2.49 |
| FERLYQDLETHRLPCTSRCPRPCR [Y2E] | 4.26 |
| FGRLYQDLETHRLPCTSRCPRPCR [Y2G] | 2.74 |

| Variant | protein stability index |
| --- | --- |
| FVRLYQDLETHRLPCTSRCPRPCR [Y2V] | 2.97 |
| FHRLYQDLETHRLPCTSRCPRPCR [Y2H] | 1.59 |
| SYRLYQDLETHRLPCTSRCPRPCR [F1S] | 3.2 |
| VYRLYQDLETHRLPCTSRCPRPCR [F1V] | 2.13 |
| YYRLYQDLETHRLPCTSRCPRPCR [F1Y] | 2.4 |
| TYRLYQDLETHRLPCTSRCPRPCR [F1T] | 3.46 |
| WYRLYQDLETHRLPCTSRCPRPCR [F1W] | 2.91 |
| QYRLYQDLETHRLPCTSRCPRPCR [F1Q] | 2.71 |
| RYRLYQDLETHRLPCTSRCPRPCR [F1R] | 2.92 |
| MYRLYQDLETHRLPCTSRCPRPCR [F1M] | 2.02 |
| PYRLYQDLETHRLPCTSRCPRPCR [F1P] | 3.59 |
| NYRLYQDLETHRLPCTSRCPRPCR [F1N] | 3.47 |
| FYRLYFDLETHRLPCTSRCPRPCR [Q6F] | 1.79 |
| FYRLYEDLETHRLPCTSRCPRPCR [Q6E] | 3.63 |
| FYRLYGDLETHRLPCTSRCPRPCR [Q6G] | 1.7 |
| FYRLYIDLETHRLPCTSRCPRPCR [Q6I] | 2.31 |
| FYRLYLDLETHRLPCTSRCPRPCR [Q6L] | 1.54 |
| FYRLYKDLETHRLPCTSRCPRPCR [Q6K] | 1.35 |
| FYRLYHDLETHRLPCTSRCPRPCR [Q6H] | 1.96 |
| FYRLYADLETHRLPCTSRCPRPCR [Q6A] | 2.21 |
| FYRLYDDLETHRLPCTSRCPRPCR [Q6D] | 2.52 |
| FYRLYCDLETHRLPCTSRCPRPCR [Q6C] | 1.68 |
